Source: the supplement of paper PMC10065799, “High-throughput profiling of sequence recognition by tyrosine kinases and SH2 domains using bacterial peptide display” (eLife, 2023)

Key:
[1] = target: EPHB2 (UniProt P29323); test: phosphorylation enrichment, bacterial display (enrichment ratio); higher = better substrate or ligand; peptides without Tyr show the background
[2] = target: FGFR1 (UniProt P11362); test: as above
[3] = test system: AncSZ; test: as above
[4] = target: MERTK (UniProt Q12866); test: as above
[5] = target: Hck (UniProt P08631); test: as above
[6] = test system: Fer (mouse); test: as above
[7] = test system: c-Src; test: as above
[8] = target: FGFR3 (UniProt P22607); test: as above
[9] = target: EPHB1 (UniProt P54762); test: as above
[10] = test system: c-Abl (mouse); test: as above
[11] = target: Fyn (UniProt P06241); test: as above
[12] = target: Fes (UniProt P07332); test: as above
[13] = target: Jak2 (UniProt O60674); test: as above
[14] = target: Grb2 SH2 (UniProt P62993); test: SH2 binding enrichment of the phosphorylated peptide, bacterial display (enrichment ratio); higher = better substrate or ligand; peptides without Tyr show the background
[15] = target: SHP2-C SH2; test: as above
[16] = target: c-Src SH2; test: as above
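For SH2 binding enrichment of the phosphorylated peptide, bacterial display in this document: peptide library displayed on the E. coli surface as eCPX fusions, selected cells deep-sequenced, score is each peptide's frequency after selection divided by its frequency in the input.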
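For phosphorylation enrichment, bacterial display in this document: 11-residue human phosphosite peptides and single-mutation variants displayed on the E. coli surface, counted by deep sequencing, each peptide's frequency after selection divided by its frequency in the unselected input library; frequency after pTyr selection over input frequency; kinase dosed for 20-30% of maximal phosphorylation in three min.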

Sequence of Fes (P07332 whole entry, looked up): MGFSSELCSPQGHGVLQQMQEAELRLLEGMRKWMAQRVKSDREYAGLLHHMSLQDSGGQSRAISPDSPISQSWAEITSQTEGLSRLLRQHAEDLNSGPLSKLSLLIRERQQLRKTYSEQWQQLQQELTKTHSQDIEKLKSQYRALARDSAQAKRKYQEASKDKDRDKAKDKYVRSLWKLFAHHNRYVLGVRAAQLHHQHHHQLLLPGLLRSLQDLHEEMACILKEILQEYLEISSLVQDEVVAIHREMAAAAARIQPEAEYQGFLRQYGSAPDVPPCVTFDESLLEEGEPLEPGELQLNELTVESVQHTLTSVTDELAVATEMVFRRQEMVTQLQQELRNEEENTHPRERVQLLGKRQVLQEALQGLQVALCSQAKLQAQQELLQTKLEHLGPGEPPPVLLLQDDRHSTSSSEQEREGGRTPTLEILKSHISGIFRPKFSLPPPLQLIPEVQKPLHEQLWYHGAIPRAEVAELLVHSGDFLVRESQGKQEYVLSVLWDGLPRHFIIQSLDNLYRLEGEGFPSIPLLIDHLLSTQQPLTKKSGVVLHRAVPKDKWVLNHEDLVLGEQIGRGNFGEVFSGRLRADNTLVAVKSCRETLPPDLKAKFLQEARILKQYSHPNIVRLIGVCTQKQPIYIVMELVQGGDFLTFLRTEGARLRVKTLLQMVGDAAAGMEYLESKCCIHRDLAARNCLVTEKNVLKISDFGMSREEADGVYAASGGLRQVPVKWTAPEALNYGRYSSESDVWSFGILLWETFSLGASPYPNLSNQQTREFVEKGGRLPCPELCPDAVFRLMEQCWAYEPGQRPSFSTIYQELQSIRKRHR
Sequence of FGFR1 (P11362 whole entry, looked up): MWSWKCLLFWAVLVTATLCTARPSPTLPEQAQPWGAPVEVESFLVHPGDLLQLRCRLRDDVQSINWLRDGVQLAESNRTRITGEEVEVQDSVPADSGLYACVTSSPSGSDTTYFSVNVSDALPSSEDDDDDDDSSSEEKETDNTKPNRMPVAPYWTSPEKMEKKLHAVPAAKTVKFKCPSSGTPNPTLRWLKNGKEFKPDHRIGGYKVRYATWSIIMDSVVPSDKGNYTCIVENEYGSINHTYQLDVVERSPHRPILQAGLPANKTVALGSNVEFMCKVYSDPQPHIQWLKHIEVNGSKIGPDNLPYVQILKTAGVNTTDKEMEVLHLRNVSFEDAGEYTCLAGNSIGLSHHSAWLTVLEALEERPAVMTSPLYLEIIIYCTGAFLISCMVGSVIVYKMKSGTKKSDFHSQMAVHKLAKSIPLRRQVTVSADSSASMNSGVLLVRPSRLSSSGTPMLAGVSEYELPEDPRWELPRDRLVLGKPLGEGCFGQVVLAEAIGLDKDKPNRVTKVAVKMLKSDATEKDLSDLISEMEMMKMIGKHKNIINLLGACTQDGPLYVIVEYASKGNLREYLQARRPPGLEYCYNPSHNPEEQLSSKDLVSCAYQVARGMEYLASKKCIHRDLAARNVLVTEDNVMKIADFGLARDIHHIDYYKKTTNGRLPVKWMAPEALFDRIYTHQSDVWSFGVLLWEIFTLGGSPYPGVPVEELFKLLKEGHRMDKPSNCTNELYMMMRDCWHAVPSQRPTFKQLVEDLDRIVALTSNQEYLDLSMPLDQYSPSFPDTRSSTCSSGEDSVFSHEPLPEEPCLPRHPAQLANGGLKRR
Sequence of Grb2 SH2 (P62993 whole entry, looked up): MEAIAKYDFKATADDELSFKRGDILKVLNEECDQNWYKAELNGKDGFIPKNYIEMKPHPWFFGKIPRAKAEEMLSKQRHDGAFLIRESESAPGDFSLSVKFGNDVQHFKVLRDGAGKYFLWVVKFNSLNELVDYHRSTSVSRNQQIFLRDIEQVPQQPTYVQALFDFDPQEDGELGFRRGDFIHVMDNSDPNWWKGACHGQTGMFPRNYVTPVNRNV
Sequence of Hck (P08631 whole entry, looked up): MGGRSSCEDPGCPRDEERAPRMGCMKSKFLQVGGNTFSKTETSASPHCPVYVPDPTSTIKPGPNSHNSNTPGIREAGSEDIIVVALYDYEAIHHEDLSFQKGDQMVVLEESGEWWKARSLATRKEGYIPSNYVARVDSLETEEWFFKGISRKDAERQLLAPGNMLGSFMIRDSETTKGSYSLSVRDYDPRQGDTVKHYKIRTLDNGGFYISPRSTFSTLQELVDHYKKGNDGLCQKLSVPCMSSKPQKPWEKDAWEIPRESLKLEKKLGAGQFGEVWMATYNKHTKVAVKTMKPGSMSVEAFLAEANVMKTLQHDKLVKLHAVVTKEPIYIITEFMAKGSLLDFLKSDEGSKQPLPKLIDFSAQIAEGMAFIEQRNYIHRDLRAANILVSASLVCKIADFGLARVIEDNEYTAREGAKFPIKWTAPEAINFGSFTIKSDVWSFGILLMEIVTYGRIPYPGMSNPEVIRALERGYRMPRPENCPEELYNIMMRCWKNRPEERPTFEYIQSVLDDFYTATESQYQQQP
Sequence of EPHB1 (P54762 whole entry, looked up): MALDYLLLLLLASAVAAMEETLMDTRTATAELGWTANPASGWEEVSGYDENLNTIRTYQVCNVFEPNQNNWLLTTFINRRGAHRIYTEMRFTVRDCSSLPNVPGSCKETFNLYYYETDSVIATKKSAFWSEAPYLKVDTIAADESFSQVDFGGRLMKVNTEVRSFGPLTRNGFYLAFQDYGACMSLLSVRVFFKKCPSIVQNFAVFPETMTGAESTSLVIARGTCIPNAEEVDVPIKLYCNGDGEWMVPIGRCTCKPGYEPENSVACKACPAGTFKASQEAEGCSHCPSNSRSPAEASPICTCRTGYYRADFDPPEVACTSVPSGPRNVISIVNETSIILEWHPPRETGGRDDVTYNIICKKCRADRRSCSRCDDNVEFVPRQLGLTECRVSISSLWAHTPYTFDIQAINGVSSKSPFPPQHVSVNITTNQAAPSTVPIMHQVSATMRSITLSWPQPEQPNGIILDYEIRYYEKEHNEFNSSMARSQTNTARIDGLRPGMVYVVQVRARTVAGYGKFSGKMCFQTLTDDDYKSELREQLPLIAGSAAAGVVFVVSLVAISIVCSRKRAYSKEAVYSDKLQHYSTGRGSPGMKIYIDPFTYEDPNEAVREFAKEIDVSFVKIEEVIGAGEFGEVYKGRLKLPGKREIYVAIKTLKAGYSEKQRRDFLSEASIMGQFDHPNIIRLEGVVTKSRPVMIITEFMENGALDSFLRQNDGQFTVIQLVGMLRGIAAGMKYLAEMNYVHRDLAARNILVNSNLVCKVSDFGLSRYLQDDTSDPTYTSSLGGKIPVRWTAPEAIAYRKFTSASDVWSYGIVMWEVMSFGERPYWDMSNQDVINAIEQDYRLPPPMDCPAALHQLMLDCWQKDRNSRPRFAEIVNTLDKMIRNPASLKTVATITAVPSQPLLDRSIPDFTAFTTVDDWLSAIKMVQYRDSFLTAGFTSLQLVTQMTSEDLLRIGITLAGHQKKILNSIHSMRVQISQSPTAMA
Sequence of MERTK (Q12866 whole entry, looked up): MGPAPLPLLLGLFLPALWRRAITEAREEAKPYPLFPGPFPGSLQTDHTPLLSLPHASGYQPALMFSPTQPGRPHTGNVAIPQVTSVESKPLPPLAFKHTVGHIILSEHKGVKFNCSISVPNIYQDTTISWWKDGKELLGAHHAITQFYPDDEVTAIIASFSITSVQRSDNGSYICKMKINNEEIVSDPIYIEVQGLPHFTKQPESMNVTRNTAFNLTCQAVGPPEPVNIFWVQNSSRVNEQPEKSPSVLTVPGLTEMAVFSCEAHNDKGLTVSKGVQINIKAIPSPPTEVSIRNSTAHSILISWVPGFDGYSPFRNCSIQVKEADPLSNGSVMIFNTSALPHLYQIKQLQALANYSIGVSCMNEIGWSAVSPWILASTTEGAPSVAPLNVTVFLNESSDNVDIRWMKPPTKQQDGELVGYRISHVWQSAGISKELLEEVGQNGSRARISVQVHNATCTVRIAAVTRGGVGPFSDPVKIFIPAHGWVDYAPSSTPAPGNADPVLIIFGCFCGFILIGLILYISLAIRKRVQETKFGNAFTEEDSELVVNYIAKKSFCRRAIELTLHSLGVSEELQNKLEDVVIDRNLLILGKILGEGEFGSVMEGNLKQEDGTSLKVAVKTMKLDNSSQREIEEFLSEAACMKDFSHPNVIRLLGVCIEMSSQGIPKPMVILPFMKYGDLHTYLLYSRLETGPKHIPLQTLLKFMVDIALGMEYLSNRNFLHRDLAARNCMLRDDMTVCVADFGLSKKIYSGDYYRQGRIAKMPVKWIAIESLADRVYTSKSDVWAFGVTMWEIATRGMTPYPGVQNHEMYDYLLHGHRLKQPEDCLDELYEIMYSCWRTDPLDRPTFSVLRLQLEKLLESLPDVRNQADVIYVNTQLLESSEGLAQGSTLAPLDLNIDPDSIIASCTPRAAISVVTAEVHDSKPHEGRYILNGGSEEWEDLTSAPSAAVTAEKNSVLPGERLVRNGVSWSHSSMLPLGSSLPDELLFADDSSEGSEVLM
Sequence of Fyn (P06241 whole entry, looked up): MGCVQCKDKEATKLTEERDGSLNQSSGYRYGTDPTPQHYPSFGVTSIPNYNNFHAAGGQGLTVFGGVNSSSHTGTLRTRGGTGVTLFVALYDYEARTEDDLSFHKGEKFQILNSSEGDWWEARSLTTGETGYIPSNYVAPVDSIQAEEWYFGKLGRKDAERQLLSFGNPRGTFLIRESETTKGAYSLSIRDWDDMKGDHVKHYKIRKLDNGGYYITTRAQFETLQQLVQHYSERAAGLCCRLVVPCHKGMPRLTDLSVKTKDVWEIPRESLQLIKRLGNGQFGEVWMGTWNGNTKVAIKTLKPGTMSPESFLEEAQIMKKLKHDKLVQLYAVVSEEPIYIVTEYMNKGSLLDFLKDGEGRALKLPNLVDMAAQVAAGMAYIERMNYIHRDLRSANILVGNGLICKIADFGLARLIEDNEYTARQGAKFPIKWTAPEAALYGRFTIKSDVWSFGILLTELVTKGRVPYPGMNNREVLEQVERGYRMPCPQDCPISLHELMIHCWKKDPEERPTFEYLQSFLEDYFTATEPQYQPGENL

| Sequence | phosphorylation enrichment [1] | phosphorylation enrichment [2] | phosphorylation enrichment [3] | phosphorylation enrichment [4] | phosphorylation enrichment [5] | phosphorylation enrichment [6] | phosphorylation enrichment [7] | phosphorylation enrichment [8] | phosphorylation enrichment [9] | phosphorylation enrichment [10] | phosphorylation enrichment [11] | phosphorylation enrichment [12] | phosphorylation enrichment [13] | SH2 binding enrichment [14] | SH2 binding enrichment [15] | SH2 binding enrichment [16] |
| --- | --- | --- | --- | --- | --- | --- | --- | --- | --- | --- | --- | --- | --- | --- | --- | --- |
| KKYFSYAWPFY [BRDT_Y291_H288Y] | 0.452 | 0.475 | 0.937 | 1.96 | 0.415 | 0.395 | 0.435 | 0.621 | 0.497 | 0.712 | 0.383 | 1.03 | 1.24 | 1.93 | 1.66 | 1.43 |
| INNIDYFKNTT [FGFR2_Y656_K659N_YF] | 0.327 | 0.377 | 0.471 | 0.408 | 0.401 | 0.317 | 0.301 | 0.474 | 0.374 | 0.421 | 0.393 | 0.687 | 0.463 | 0.81 | 0.692 | 0.36 |
| CRVEPYGENFN [APOA4_Y310_R305C] | 0.651 | 0.603 | 1.28 | 0.583 | 0.608 | 0.649 | 0.616 | 0.869 | 0.675 | 1.1 | 0.441 | 1.57 | 1.28 | 0.703 | 0.712 | 0.675 |
| NGQALYAACQT [XDH_Y1092_V1091L] | 9.92 | 0.554 | 0.775 | 6.34 | 4.99 | 6.91 | 3.35 | 0.562 | 9.24 | 2.26 | 3.2 | 0.916 | 0.687 | 0.782 | 0.787 | 0.456 |
| HFIKLYEEKTG [PARP1_Y618_M615I] | 1.08 | 0.456 | 1.69 | 0.694 | 0.828 | 0.798 | 0.392 | 0.807 | 1.17 | 0.781 | 0.978 | 0.952 | 1.03 | 1.16 | 1.57 | 0.872 |
| EQKKYYNAVKK [SCN5A_Y1495_M1498V] | 0.34 | 0.425 | 0.529 | 0.563 | 0.352 | 0.414 | 0.476 | 0.466 | 0.341 | 0.511 | 0.328 | 0.63 | 0.634 | 1.16 | 1.01 | 0.696 |
| HSGVSYYINLC [IGF2R_Y2024_N2020S] | 0.942 | 0.849 | 1.59 | 0.563 | 0.729 | 0.951 | 0.488 | 1.09 | 1.15 | 1.21 | 0.661 | 1.93 | 2.38 | 0.722 | 0.566 | 0.533 |
| ISDNAYQFMLT [MYH7_Y162_YF] | 0.526 | 1.83 | 1.22 | 0.883 | 0.684 | 5.75 | 0.807 | 1.51 | 0.662 | 1.09 | 0.654 | 1.19 | 0.957 | 0.762 | 0.841 | 0.735 |
| RIVEIYSRRLR [GCH1_Y175_Q180R] | 0.654 | 0.292 | 0.691 | 0.773 | 0.736 | 1.15 | 0.81 | 0.549 | 0.728 | 0.692 | 0.922 | 0.623 | 0.619 | 0.761 | 0.353 | 0.404 |
| NRLTDYFEPLL [BBS10_Y536_YF] | 1.16 | 6.99 | 1.71 | 0.381 | 0.548 | 0.468 | 0.406 | 4.38 | 2.54 | 0.675 | 0.755 | 0.993 | 0.959 | 1.02 | 0.842 | 0.711 |
| MAYDRYVAICS [OR8D4_Y123_C120Y] | 2.12 | 0.603 | 1.01 | 0.77 | 0.745 | 0.547 | 0.762 | 0.753 | 1.28 | 1.03 | 0.486 | 1.01 | 1.15 | 0.766 | 0.713 | 0.98 |
| FRRITYHNWRH [PDE6B_Y556_YF] | 0.515 | 0.432 | 0.785 | 0.518 | 0.527 | 0.571 | 0.535 | 0.458 | 0.309 | 0.577 | 0.593 | 0.635 | 0.627 | 0.475 | 0.456 | 0.399 |
| PSRKDYETYQP [CTNND2_Y1154] | 2.62 | 0.592 | 1.04 | 0.6 | 0.873 | 0.485 | 0.62 | 0.695 | 1.49 | 0.95 | 0.55 | 1.02 | 0.677 | 0.905 | 0.818 | 0.597 |
| IPQEEYTATGL | 0.512 | 0.506 | 1.16 | 0.378 | 0.461 | 0.562 | 0.56 | 0.653 | 0.622 | 0.924 | 0.437 | 1.39 | 0.955 | 0.799 | 0.79 | 0.441 |
| HITQVYGFYDE [PPP2CA_Y127_Q122H] | 1.85 | 2.27 | 2.11 | 2.79 | 5.95 | 2.21 | 12.3 | 1.26 | 1.31 | 1.58 | 13.2 | 1.79 | 1.88 | 0.754 | 0.651 | 1.79 |
| IGVGSYSVCKR [RPS6KA3_Y433] | 0.412 | 0.354 | 0.716 | 0.445 | 0.383 | 0.385 | 0.362 | 0.496 | 0.369 | 0.53 | 0.317 | 0.878 | 0.618 | 0.867 | 0.88 | 0.938 |
| VATRWYWSPEL [CDKL5_Y177_R178W] | 3.81 | 5.92 | 1.06 | 6.3 | 0.532 | 0.512 | 0.647 | 5.13 | 4.61 | 0.771 | 0.464 | 1.15 | 1.14 | 0.971 | 0.731 | 1.94 |

| Sequence | phosphorylation enrichment [1] | phosphorylation enrichment [2] | phosphorylation enrichment [3] | phosphorylation enrichment [4] | phosphorylation enrichment [5] | phosphorylation enrichment [6] | phosphorylation enrichment [7] | phosphorylation enrichment [8] | phosphorylation enrichment [9] | phosphorylation enrichment [10] | phosphorylation enrichment [11] | phosphorylation enrichment [12] | phosphorylation enrichment [13] | SH2 binding enrichment [14] | SH2 binding enrichment [15] | SH2 binding enrichment [16] |
| --- | --- | --- | --- | --- | --- | --- | --- | --- | --- | --- | --- | --- | --- | --- | --- | --- |
| LYEDHYLLGTS [ASS1_Y87_R86H] | 3.05 | 0.689 | 1.66 | 2.08 | 1.19 | 16.1 | 2.73 | 0.972 | 12.3 | 1.1 | 1.86 | 1.37 | 2.17 | 0.9 | 0.565 | 0.571 |
| RRNVFYFSFLL [PTEN_Y177_Y174N_YF] | 1.03 | 0.743 | 1.81 | 0.937 | 0.923 | 0.852 | 1.29 | 0.709 | 0.998 | 2.83 | 0.984 | 1.62 | 1.69 | 1.34 | 0.691 | 0.893 |
| YFCRWYRNQKS [EREG_Y144_R147Q] | 0.385 | 0.473 | 0.565 | 0.523 | 0.372 | 0.454 | 0.477 | 0.548 | 0.481 | 0.444 | 0.447 | 0.48 | 0.371 | 0.712 | 0.545 | 0.275 |
| LNPFIYSLRNW [OR1A2_Y288] | 0.819 | 0.644 | 2.05 | 4.23 | 6.49 | 2.28 | 8.69 | 1.1 | 1.52 | 4.13 | 7.05 | 1.73 | 1.34 | 1.23 | 1.78 | 1.79 |
| KQRKEYMHRRQ [IQGAP2_Y710] | 0.444 | 0.375 | 0.696 | 0.452 | 0.526 | 0.437 | 0.518 | 0.519 | 0.551 | 0.649 | 0.477 | 0.715 | 0.636 | 0.78 | 0.392 | 0.447 |
| YQGGTYSKAST [FGG_Y380] | 0.419 | 0.423 | 0.867 | 0.43 | 0.424 | 0.387 | 0.424 | 0.43 | 0.33 | 0.388 | 0.449 | 0.526 | 0.373 | 0.846 | 0.557 | 0.716 |
| GKVADYIPQLP [GLS_Y249_A254P] | 0.49 | 0.57 | 0.796 | 0.455 | 0.448 | 0.495 | 0.484 | 0.634 | 0.468 | 0.795 | 0.484 | 0.866 | 0.892 | 0.724 | 0.634 | 0.448 |
| SVDRDYVLKSA [HTATIP2_Y111_R106S] | 0.403 | 0.487 | 0.66 | 0.4 | 0.399 | 0.403 | 0.426 | 0.54 | 0.546 | 0.699 | 0.439 | 0.755 | 0.571 | 0.74 | 0.927 | 0.387 |
| DSSIRYLQEIY [FGG_Y135] | 0.585 | 0.59 | 0.893 | 0.438 | 0.948 | 0.549 | 1.14 | 0.655 | 0.587 | 0.567 | 0.776 | 1.02 | 0.733 | 0.935 | 0.629 | 0.526 |
| GHLYANDWISI [BEST1_Y227_Y227N] | 0.619 | 0.609 | 0.819 | 3.32 | 0.575 | 0.527 | 0.683 | 0.674 | 0.778 | 0.587 | 0.734 | 0.871 | 0.878 | 24.5 | 3.5 | 18.4 |
| PSQRRYLFFFS [PTEN_Y174_V175L_YF] | 0.804 | 0.607 | 1.86 | 0.756 | 0.716 | 0.531 | 0.441 | 0.915 | 0.818 | 0.991 | 0.753 | 1.93 | 1.74 | 0.936 | 1.15 | 0.655 |
| ALDRPYTSKHS [NANS_Y71_E68D] | 0.508 | 0.379 | 0.612 | 0.448 | 0.489 | 0.474 | 0.542 | 0.566 | 0.364 | 0.637 | 0.499 | 0.638 | 0.636 | 0.926 | 0.613 | 0.485 |
| LGRGKSSEVFE [CSNK2A1_Y50_Y50S] | 0.605 | 0.438 | 0.923 | 0.639 | 0.517 | 0.593 | 0.653 | 0.661 | 0.341 | 0.835 | 0.646 | 1.01 | 0.996 | 0.65 | 0.547 | 0.337 |
| GYRVCYTPDSR [PTPRF_Y451_Y450C] | 0.592 | 0.492 | 1.07 | 0.434 | 0.547 | 0.505 | 0.522 | 0.739 | 0.635 | 0.794 | 0.498 | 1.26 | 0.975 | 0.769 | 0.717 | 0.591 |
| LKRIAYFLCLR [LGI1_Y21_L26R] | 0.413 | 0.365 | 0.997 | 0.359 | 0.37 | 0.435 | 0.341 | 0.601 | 0.372 | 0.708 | 0.399 | 1.06 | 0.949 | 0.841 | 0.652 | 0.583 |
| NWGSPYKSDGC [ZNF347_Y261_N264D] | 0.51 | 0.562 | 0.864 | 0.345 | 0.442 | 0.394 | 0.397 | 0.522 | 0.486 | 0.723 | 0.4 | 0.864 | 0.673 | 0.768 | 0.587 | 0.405 |
